# Measured values taken from patent publication US20200332006A1 (ULTRAHUMAN NINE, published 2020).
# T1: human BTN2A1, expressed on HEK293 cells (human, UniProt Q7KYR7 29-527)
# T1 construct: also called NM_007049
# T1 sequence: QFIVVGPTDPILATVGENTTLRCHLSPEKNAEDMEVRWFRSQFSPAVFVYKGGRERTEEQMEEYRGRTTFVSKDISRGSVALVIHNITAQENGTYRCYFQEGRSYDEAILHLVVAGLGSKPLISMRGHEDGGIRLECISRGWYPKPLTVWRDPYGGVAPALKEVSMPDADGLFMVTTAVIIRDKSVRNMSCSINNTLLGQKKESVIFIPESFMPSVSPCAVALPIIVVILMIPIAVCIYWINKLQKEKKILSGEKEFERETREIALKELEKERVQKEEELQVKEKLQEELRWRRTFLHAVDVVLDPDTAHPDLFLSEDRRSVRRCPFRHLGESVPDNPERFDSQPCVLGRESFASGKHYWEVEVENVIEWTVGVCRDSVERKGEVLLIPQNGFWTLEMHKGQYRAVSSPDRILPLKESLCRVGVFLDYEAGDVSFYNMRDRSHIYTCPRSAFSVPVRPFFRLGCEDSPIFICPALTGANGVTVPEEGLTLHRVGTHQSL
# T2: human LSAMP, expressed on HEK293 cells (human, UniProt Q13449 29-315)
# T2 construct: also called BC033803
# T2 sequence: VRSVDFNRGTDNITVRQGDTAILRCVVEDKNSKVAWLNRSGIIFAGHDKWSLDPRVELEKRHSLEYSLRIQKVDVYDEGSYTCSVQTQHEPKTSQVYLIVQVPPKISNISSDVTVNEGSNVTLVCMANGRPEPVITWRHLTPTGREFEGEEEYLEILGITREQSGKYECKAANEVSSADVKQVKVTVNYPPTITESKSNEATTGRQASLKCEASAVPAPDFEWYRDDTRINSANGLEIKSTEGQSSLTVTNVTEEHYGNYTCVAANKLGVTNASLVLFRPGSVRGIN
# T3: human CD20, expressed on HEK293 cells (human, UniProt P11836 1-297)
# T3 construct: whole, on cells
# T3 sequence (looked up): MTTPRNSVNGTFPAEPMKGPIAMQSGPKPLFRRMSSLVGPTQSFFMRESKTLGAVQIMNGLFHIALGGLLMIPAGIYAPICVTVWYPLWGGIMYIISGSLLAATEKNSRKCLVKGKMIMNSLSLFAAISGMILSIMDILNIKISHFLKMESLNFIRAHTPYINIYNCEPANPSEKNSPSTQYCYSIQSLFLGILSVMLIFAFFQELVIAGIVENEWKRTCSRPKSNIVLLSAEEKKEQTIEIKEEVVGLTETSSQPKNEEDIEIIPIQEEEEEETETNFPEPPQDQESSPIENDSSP
# T4: cynomolgus monkey PD1, membrane-expressed on CHO-K1 stable cell line (cynomolgus monkey, UniProt Q15116 25-288 (human entry))
# T4 construct: Genscript cell line M00572; also called membrane-presented cyno PD1
# T4 chain: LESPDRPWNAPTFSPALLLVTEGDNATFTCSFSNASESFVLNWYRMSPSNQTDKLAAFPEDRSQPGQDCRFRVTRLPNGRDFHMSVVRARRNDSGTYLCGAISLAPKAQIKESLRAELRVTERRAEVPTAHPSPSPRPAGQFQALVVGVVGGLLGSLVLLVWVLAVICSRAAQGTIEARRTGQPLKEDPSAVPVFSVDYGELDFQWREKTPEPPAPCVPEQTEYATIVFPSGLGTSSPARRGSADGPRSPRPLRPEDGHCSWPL
# Legend:
# [1] = target: T1, human BTN2A1, expressed on HEK293 cells; experiment: Retrogenix cell microarray, fixed HEK293 cells
# Description: (§1) Human cell membrane receptor proteome arrays were performed at Retrogenix Ltd. Primary screens: 2 μg/ml of each antibody was screened for binding against fixed HEK293 cells/slides expressing 5528 human plasma membrane and tethered secreted proteins individually. […] Antibody binding was detected using AF647 fluorescent secondary anti-human IgG1 antibody. Primary hits (duplicate spots) were identified by analysing fluorescence (AF647 and ZsGreen1) on ImageQuant. Confirmation/specificity screens: Expression vectors encoding ZsGreen1 only, or ZsGreen1 and CD20, PD1, BTN2A1, or LSAMP were transfected into human HEK293 cells. […] Cells were washed, and incubated with the same AF647 anti-human IgG Fc detection antibody as used in the cell microarray screens. Cells were again washed, and analysed by flow cytometry using an Accuri flow cytometer (BD). A 7AAD live/dead dye was used to exclude dead cells, and ZsGreen1-positive cells (i.e. transfected cells) were selected for analyses.
# [2] = target: T2, human LSAMP, expressed on HEK293 cells; experiment: flow cytometry on live transfected HEK293 cells
# Description: (§2) FIG. 11. […] Analyses of binding specificity were performed on HEK293 cells transiently transfected with plasmids encoding either human PD1, human BTN2A1, human LSAMP, human CD20 or ZS green marker only. Each antibody was used in staining at […] concentration and histograms are indicated per antibody in this figure.
# as §1
# [3] = target: T3, human CD20, expressed on HEK293 cells; experiment: flow cytometry on live transfected HEK293 cells
# Description: as §2, §1
# [4] = target: T1, human BTN2A1, expressed on HEK293 cells; experiment: flow cytometry on transfected HEK293 cells, 2 ug/ml IgG
# Description: as §2, §1
# [5] = target: T2, human LSAMP, expressed on HEK293 cells; experiment: as above
# Description: as §2, §1
# [6] = target: T3, human CD20, expressed on HEK293 cells; experiment: as above
# Description: as §2, §1
# [7] = target: T5, human PD1, membrane-expressed on transfected cells (CHO-K1 stable line, HEK293 transfectants, PD1 effector … (human, UniProt Q15116 25-288)); experiment: Retrogenix cell microarray, fixed HEK293 cells, 2 ug/ml IgG
# T5 construct: also called PD1 (PDCD1) NM_005018; membrane-presented human PD1
# T5 sequence (Q15116 25-288 limits assumed): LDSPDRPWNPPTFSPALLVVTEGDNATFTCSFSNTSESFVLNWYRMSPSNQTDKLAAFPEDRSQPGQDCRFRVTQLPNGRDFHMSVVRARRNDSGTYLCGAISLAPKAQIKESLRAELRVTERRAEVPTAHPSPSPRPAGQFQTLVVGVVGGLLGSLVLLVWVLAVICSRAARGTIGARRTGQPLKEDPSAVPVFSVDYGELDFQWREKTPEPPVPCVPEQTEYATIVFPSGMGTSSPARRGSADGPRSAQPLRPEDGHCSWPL
# [8] = target: T4, cynomolgus monkey PD1, …; experiment: flow cytometry on CHO cells stably transfected with cyno PD1 (reference antibody)
# Description: The IgG samples were titrated in three-fold serial dilutions starting at 500 nM to 0.98 nM. Binding of IgGs was detected with a mouse anti-human IgG conjugated to FITC. Results were analyzed by examining the Mean Fluorescence Intensity (MFI) of 10000 cells per sample in the BL-1 channel detector of a flow cytometer (Attune™ NxT Acoustic Focusing Cytometer, Invitrogen/ThermoFisher Scientific).
# Antibodies to PD1 were analysed for concentration-dependent binding at the cell surface via flow cytometry. Initial analyses were performed on CHO cells stably-transfected with human or cyno PD1.
binder,measurement,setting,value
"Hu317 humanized anti-PD1 antibody, IgG1null format (antibody, V domains shown, Tested as IgG1null (human IgG1 L234A, L235A, G237A) with human Ckappa; also called hu317 IgG1) VH: QVQLQESGPGLVKPSETLSLTCTVSGFSLTSYGVHWIRQPPGKGLEWIGVIYADGSTNYNPSLKSRVTISKDTSKNQVSLKLSSVTAADTAVYYCARAYGNYWYIDVWGQGTTVTVSS VL: DIVMTQSPDSLAVSLGERATINCKSSESVSNDVAWYQQKPGQPPKLLINYAFHRFTGVPDRFSGSGYGTDFTLTISSLQAEDVAVYYCHQAYSSPYTFGQGTKLEIK",binding result,[1],no binding (tested: 2 ug/ml)
same,binding result,[2],no binding (tested: 2 ug/ml)
same,binding result,[3],no binding (tested: 2 ug/ml)
same,fold fluorescence change versus mock (ZSgreen only) cells,[4],1.2 fold
same,fold fluorescence change versus mock (ZSgreen only) cells,[5],1.5 fold
same,fold fluorescence change versus mock (ZSgreen only) cells,[6],1.4 fold
same,binding result,[7],binds
same,binding result,[8],binds
